# Where no end group is shown, it is not given here. [ ]: non-standard residue; d: D form.
# Molecular target: Bio-His-FIKK13 (Plasmodium falciparum 3D7)
# Test: SPR; single-cycle kinetics, Biacore S200, Biotin CAPture kit; Bio-His-FIKK13 immobilised (about 1,400 RU), peptides as analytes; 50 mM Tris pH 7.5, 250 mM NaCl, 2 mM DTT, 10 mM MgCl2, 1.5 µM ADP, 0.02% Tween, 0.1% DMSO; 25 °C; 100 s contact time
Binder,Kd,koff,kon
YRLVFGCG (D-tyrosine at position 1; cyclised via a thioether bond between the N-terminus and the cysteine side chain; C-terminal amide) [FIKK13_1],> 10 µM,–,–
YSFPVYRIWYRDCG (D-tyrosine at position 1; cyclised via a thioether bond between the N-terminus and the cysteine side chain; C-terminal amide) [FIKK13_2],–,0.2 s⁻¹,1.4e+06 M⁻¹ s⁻¹
YRIFRIWWERCG (D-tyrosine at position 1; cyclised via a thioether bond between the N-terminus and the cysteine side chain; C-terminal amide) [FIKK13_5],–,0.07 s⁻¹,1.9e+06 M⁻¹ s⁻¹
[dY]SFPVYRIWYRDCG-NH2 (N-terminus assumed; SMILES CC[C@H](C)[C@H](NC(=O)[C@H](CCCNC(=N)N)NC(=O)[C@H](Cc1ccc(O)cc1)NC(=O)[C@@H](NC(=O)[C@@H]1CCCN1C(=O)[C@H](Cc1ccccc1)NC(=O)[C@H](CO)NC(=O)[C@H](N)Cc1ccc(O)cc1)C(C)C)C(=O)N[C@@H](Cc1c[nH]c2ccccc12)C(=O)N[C@@H](Cc1ccc(O)cc1)C(=O)N[C@@H](CCCNC(=N)N)C(=O)N[C@@H](CC(=O)O)C(=O)N[C@@H](CS)C(=O)NCC(N)=O) [FIKK13_2_linear],> 10 µM,–,–
YIVSVVCWSD (D-tyrosine at position 1; cyclised via a thioether bond between the N-terminus and the cysteine side chain; C-terminal amide) [FIKK13_6],> 10 µM,–,–
YPFITSPRYCFML (D-tyrosine at position 1; cyclised via a thioether bond between the N-terminus and the cysteine side chain; C-terminal amide) [FIKK13_3],–,0.029 s⁻¹,3.5e+06 M⁻¹ s⁻¹
[dY]PLRFLSVKYHCG-NH2 (N-terminus assumed; SMILES CC(C)C[C@H](NC(=O)[C@H](Cc1ccccc1)NC(=O)[C@H](CCCNC(=N)N)NC(=O)[C@H](CC(C)C)NC(=O)[C@@H]1CCCN1C(=O)[C@H](N)Cc1ccc(O)cc1)C(=O)N[C@@H](CO)C(=O)N[C@H](C(=O)N[C@@H](CCCCN)C(=O)N[C@@H](Cc1ccc(O)cc1)C(=O)N[C@@H](Cc1c[nH]cn1)C(=O)N[C@@H](CS)C(=O)NCC(N)=O)C(C)C) [FIKK13_4_linear],> 10 µM,–,–
YPLRFLSVKAHCG (D-tyrosine at position 1; cyclised via a thioether bond between the N-terminus and the cysteine side chain; C-terminal amide) [FIKK13_4_Y10A],> 10 µM,–,–

# From paper PMC12137140, “The fast-evolving FIKK kinase family of Plasmodium falciparum can be inhibited by a single compound” (Nature Microbiology, 2025)
